Measured values as given in doi:10.1101/2023.07.13.548902v1.

Substrate: [H][C@@]1(O[C@H]2[C@H](O)[C@@H](O)[C@H](Oc3ccc([N+](=O)[O-])cc3)O[C@@H]2CO)O[C@H](CO)[C@H](O)[C@H](O)[C@H]1O
Assay: p-nitrophenol release, Lineweaver-Burk
Format: biochemical, Aspergillus fumigatus
Conditions: 50 °C, 30 min, 25 mM citrate pH 5.0

B1: AfCel7A (Aspergillus fumigatus Af293) (protein)
chain: QQVGTSQAEVHPSMTWQSCTAGGSCTTNNGKVVIDANWRWVHKVGDYTNCYTGNTWDTTICPDDATCASNCALEGANYESTYGVTASGNSLRLNFVTTSQQKNIGSRLYMMKDDSTYEMFKLLNQEFTFDVDVSNLPCGLNGALYFVAMDADGGMSKYPTNKAGAKYGTGYCDSQCPRDLKFINGQANVEGWQPSSNDANAGTGNHGSCCAEMDIWEANSISTAFTPHPCDTPGQVMCTGDACGGTYSSDRYGGTCDPDGCDFNSFRQGNKTFYGPGMTVDTKSKFTVVTQFITDDGTSSGTLKEIKRFYVQNGKVIPNSESTWTGVSGNSITTEYCTAQKSLFQDQNVFEKHGGLEGMGAALAQGMVLVMSLWDDHSANMLWLDSNYPTTASSTTPGVARGTCDISSGVPADVEANHPDAYVVYSNIKVGPIGSTFNSGGSNPGGGTTTTTTTQPTTTTTTAGNPGGTGVAQHYGQCGGIGWTGPTTCASPYTCQKLNDYYSQCL
- Km: 0.128 ± 0.001 mM
- kcat: 4.833 ± 0.02 min⁻¹
